Changes are numbered by the printed parent chain.
What was measured:
[1] = biological target: T1, Pry1 (pathogen related in yeast 1), C-terminal polyhistidine tag (S. cerevisiae, UniProt P47032 20-299, RED-tris-NTA fluorescent label on the His tag); experiment: MST; 100 nM CAP protein labelled with RED-tris-NTA on its His tag, serial dilution of unlabeled PSP94 or PSP94^F24G; 20 mM Tris pH 7.5, 30 mM NaCl, 0.05% Triton X-100; Monolith NT.115, 80% laser power; triplicates; conditions: both partners purified
T1 construct: Pry1, S. cerevisiae CAP family member; source: E. coli BL21, purified (nickel-NTA); not shown: polyhistidine, C-terminal, kept
T1 sequence (looked up): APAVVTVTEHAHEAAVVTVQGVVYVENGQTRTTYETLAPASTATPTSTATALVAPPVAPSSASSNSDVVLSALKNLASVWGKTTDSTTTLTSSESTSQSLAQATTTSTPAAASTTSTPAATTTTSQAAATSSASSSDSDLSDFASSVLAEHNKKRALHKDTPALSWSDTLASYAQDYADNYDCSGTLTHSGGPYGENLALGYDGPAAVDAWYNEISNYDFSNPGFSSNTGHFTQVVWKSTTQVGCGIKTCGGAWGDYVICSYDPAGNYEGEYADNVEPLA

[2] = biological target: T2, CRISP2 Y99P, His-tagged (human, UniProt P16562 22-243, Y99P, RED-tris-NTA fluorescent label on the His tag); experiment: as above; conditions: both partners purified
T2 construct: CRISP2 with the point mutation Y99P in the β2-strand; Same construct as m4 with the mutation; source: E. coli, purified; not shown: polyhistidine, C-terminal, kept
T2 sequence (looked up): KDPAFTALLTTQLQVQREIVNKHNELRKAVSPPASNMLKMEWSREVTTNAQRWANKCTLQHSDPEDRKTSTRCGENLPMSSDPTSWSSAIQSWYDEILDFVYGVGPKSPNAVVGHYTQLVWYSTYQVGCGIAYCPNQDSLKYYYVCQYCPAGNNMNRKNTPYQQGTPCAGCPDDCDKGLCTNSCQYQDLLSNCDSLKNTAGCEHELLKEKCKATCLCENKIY

[3] = biological target: T3, CRISP2 L98G, His-tagged (human, UniProt P16562 22-243, L98G, RED-tris-NTA fluorescent label on the His tag); experiment: as above; conditions: both partners purified
T3 construct: CRISP2 with the point mutation L98G in the β2-strand; Same construct as m4 with the mutation; source: E. coli, purified; not shown: polyhistidine, C-terminal, kept
T3 sequence (looked up): T2 sequence (looked up) with L77G, P78Y

[4] = biological target: T4, CRISP2 (cysteine-rich secretory protein 2), C-terminal polyhistidine tag (human, UniProt P16562 22-243, RED-tris-NTA fluorescent label on the His tag); experiment: as above; conditions: both partners purified
T4 construct: also called Tpx-1; testis-specific protein 1; source: E. coli BL21, purified (nickel-NTA); not shown: polyhistidine, C-terminal, kept
T4 sequence (looked up): T2 sequence (looked up) with P78Y

[5] = biological target: T5, CRISP3 (cysteine-rich secretory protein 3), C-terminal polyhistidine tag (human, UniProt P54108 21-245, RED-tris-NTA fluorescent label on the His tag); experiment: as above; conditions: both partners purified
T5 construct: CRISP3, human; pET22b; source: E. coli, inclusion bodies, purified under denaturing conditions, renatured (nickel-NTA); not shown: polyhistidine, C-terminal, kept
T5 sequence (looked up): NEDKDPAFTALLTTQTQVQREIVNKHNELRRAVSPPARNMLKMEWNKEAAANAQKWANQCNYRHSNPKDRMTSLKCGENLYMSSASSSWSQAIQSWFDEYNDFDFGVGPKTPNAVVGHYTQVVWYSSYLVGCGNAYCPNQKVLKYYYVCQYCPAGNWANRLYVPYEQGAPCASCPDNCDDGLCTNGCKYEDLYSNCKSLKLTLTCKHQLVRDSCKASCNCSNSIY

[6] = biological target: T6, CRISP2 N97P, His-tagged (human, UniProt P16562 22-243, N97P, RED-tris-NTA fluorescent label on the His tag); experiment: as above; conditions: both partners purified
T6 construct: CRISP2 with the point mutation N97P in the β2-strand; Same construct as m4 with the mutation; source: E. coli, purified; not shown: polyhistidine, C-terminal, kept
T6 sequence (looked up): T2 sequence (looked up) with N76P, P78Y

[7] = biological target: T7, CRISP2 L98G, His-tagged (human, UniProt P16562 22-243, L98G, RED-tris-NTA fluorescent label on the His tag); experiment: MST
T7 sequence: T2 sequence (looked up) with L77G, P78Y

[8] = biological target: T8, CRISP2 N97P, His-tagged (human, UniProt P16562 22-243, N97P, RED-tris-NTA fluorescent label on the His tag); experiment: MST
T8 sequence: T2 sequence (looked up) with N76P, P78Y

[9] = biological target: T9, CRISP2 Y99P, His-tagged (human, UniProt P16562 22-243, Y99P, RED-tris-NTA fluorescent label on the His tag); experiment: MST
T9 sequence: T2 sequence (looked up)

[10] = test system: fatty acid export by CAP family members (CRISP2); experiment: Fatty acid export assay in yeast; format: cell-based, Saccharomyces cerevisiae; conditions: co-expression with CRISP2 in faa1Δ faa4Δ pry1Δ pry3Δ yeast
Text: We and others have previously shown that CAP proteins can bind eicosanoids and free fatty acids at a second lipid-binding site that is independent of the sterol-binding site ([30], [31]). To test whether PSP94 affects fatty acid binding by the CAP domain, we examined whether coexpression of PSP94 with CRISP2 affects fatty acid export from mutant cells lacking the two acyl-CoA synthases Faa1 and Faa4 and two of the three yeast CAP domain proteins, Pry1 and Pry3.
To analyze the CRISP2-dependent export of fatty acids, cells were grown overnight and the supernatant of 5 A600nm units of yeast cells was collected and dried in a freeze dryer. Fatty acid methyl esters (FAMEs) were produced by incubating the dried fractions at 85 °C for 45 min in 1 ml of methanol–sulfuric acid (5% v/v) supplemented with butylated hydroxytoluene (0.01% w/v). The FAMEs were extracted in a mixture containing 1.5 ml of NaCl (0.9% w/v) and 2 ml of hexane, and the upper phase was collected. FAMEs were then resuspended in heptane and separated on an Agilent 7890A gas chromatograph equipped with a DB-23 capillary column (30 m × 0.25 mm × 0.25 μm) (Agilent Technologies) and quantified relative to an internal standard (C17:0, 10 μg) as described ([31]).

[11] = biological target: T10, CRISP2^N97P L98G (Homo sapiens, UniProt P16562, L98G/N97P); experiment: MST binding to CRISP2 double mutant N97P L98G; set-up: species or system mammalian; conditions: read-out: Kd, protein-protein interaction with CRISP2^N97P L98G
T10 construct: made in house; host or cells: E. coli
T10 sequence (P16562 22-243 N97P/L98G): T2 sequence (looked up) with N76P, L77G, P78Y
Method: Next, we generated all three double mutant combinations of CRISP2: N97P L98G, N97P Y99P, and L98G Y99P. These three double mutant versions of CRISP2 were again expressed as His-tagged proteins in E. coli and purified, and their capacity to bind sterols in the presence or absence of PSP94 was assessed by MST. […] The capacity of the CRISP2^L98G Y99P double mutant to bind sterols even in the presence of PSP94 was confirmed by the in vivo sterol export assay (Fig. 6, A and B). When expressed in yeast cells, the CRISP2^L98G Y99P double mutant was stably expressed and secreted as monitored by Western blotting (Fig. 6C).
MST experiments were performed to assess protein–protein, protein–lipid, and protein–calcium interactions using a Monolith NT.115 (Nanotemper Technologies). Proteins were labeled using the RED-tris-NTA His tag protein labeling kit. Labeled CAP proteins, 100 nM, were mixed with a serial dilution of unlabeled PSP94, PSP9^F24G, cholesterol sulfate, or calcium chloride, prepared in binding buffer (20 mM Tris pH 7.5, 30 mM NaCl, 0.05% Triton X-100). Samples were loaded into MST standard capillaries, and MST measurements were performed using an 80% laser power setting. The dissociation constant Kd was obtained by plotting the normalized fluorescence (Fnorm) against the logarithm of ligand concentration. […]

B1: prostate secretory protein of 94 amino acids (PSP94), C-terminal polyhistidine tag (natural protein, human, UniProt P08118 21-114, looked up)
chain: SCYFIPNEGVPGDSTRKCMDLKGNKHPINSEWQTDNCETCTCYETEISCCTLVSTPVGYDKDNCQRIFKKEDCKYIVVEKKDPKKTCSVSEWII
notes: PSP94 (β-microseminoprotein), human; also called β-microseminoprotein; MSP; source: E. coli BL21, purified (nickel-NTA)
Kd [1]: 70 nM | binding result [2]: binds | binding result [3]: binds | Kd [4]: 6 nM | binding result [5]: binds | binding result [6]: binds | Kd [7]: 8.6 nM | Kd [8]: 8.1 nM | Kd [9]: 9.3 nM

B2: PSP94: prostate secretory protein of 94 amino acids, His-tagged, purified from E. coli; or expressed in yeast (protein)
chain: B1 chain
modifications: left off: polyhistidine, C-terminal, state not stated
notes: prostate secretory protein of 94 amino acids, His-tagged, purified from E. coli; or expressed in yeast
effect on fatty acid export [10]: does not affect fatty acid binding and export | Kd [11]: 4 ± 1.8 nM
